B1: full-length NpSRII/NpHtrII complex (complex)
chain 1: MVGLTTLFWLGAIGMLVGTLAFAWAGRDAGSGERRYYVTLVGISGIAAVAYVVMALGVGWVPVAERTVFAPRYIDWILTTPLIVYFLGLLAGLDSREFGIVITLNTVVMLAGFAGAMVPGIERYALFGMGAVAFLGLVYYLVGPMTESASQRSSGIKSLYVRLRNLTVILWAIYPFIWLLGPPGVALLTPTVDVALIVYLDLVTKVGFGFIALDAAATLRAEHGESLAGVDTDAPAVAD
chain 2: not shown
notes: Sensory rhodopsin II (NpSRII), Natronomonas pharaonis, UniProt P42196; no limits stated; as m1; Sensory rhodopsin II transducer (NpHtrII), Natronomonas pharaonis, UniProt P42259; as m2; also called sensory rhodopsin II/transducer complex; full-length phototaxis complex; source: E. coli BL21-AI (SAXS) or BL21(DE3) (SANS), co-expressed, solubilised in DDM, purified (Ni-NTA, SEC); not shown: …
B2: full-length transducer NpHtrII from Natronomonas pharaonis (natural protein)
chain: not shown
notes: Sensory rhodopsin II transducer (NpHtrII), Natronomonas pharaonis, UniProt P42259; gene optimised for expression in E. coli; also called cognate transducer; source: E. coli BL21-AI (SAXS) or BL21(DE3) (SANS), co-expressed with NpSRII, solubilised in DDM, purified (Ni-NTA, SEC); not shown: 6xHis-tag (with ENS-linker), C-terminal, kept

Legend:
[1] = target: the molecule itself; assay: SANS; full-length complex 0.40 mg/ml in D2O buffer, 4.0 M NaCl, 100 mM Na/Na-Pi pD 8.0, 1 mM EDTA, 0.05% DDM; OLIGOMER fit to a mixture of dimers and trimers of dimers (trimer of dimers = six NpSRII/NpHtrII units)
[2] = target: the molecule itself; assay: SAXS; detergent-solubilised (DDM) complex, peak fractions after gel filtration; low salt (150 mM NaCl); 0.57 mg/ml full-length and 0.78 mg/ml truncated complex; BM29 (ESRF); curves fitted with atomistic dimer models with a detergent belt (MEMPROT, CRYSOL3)

Row | Protein | stoichiometry N [1] | stoichiometry N [2] | binding result [1]
1 | B1 | 6 | 2 | –
2 | B2 | – | – | binds

— PMC8144572, “Molecular model of a sensor of two-component signaling system” (Scientific Reports, 2021)
